Reference: patent US6558660B2, “Method for regulating IL-10 with IL-9, and applications thereof” (Ludwig Institute for Cancer Research, priority 2000, dated 2003)

Assays:
[1] = system: P. aeruginosa (serotype 10); settings: cited from earlier work
[2] = system: TNF-α; test: serum TNF-α bioassay (cytotoxicity to WEH1 164 cells) after P. aeruginosa challenge; assay type: in vivo; settings: P. aeruginosa treated mice; IL-9 24 and 1 hour prior to challenge
Excerpt: (§1) It has been observed, previously, that there is a strong association between development of fatal septic shock and production of TNF-α. See, e.g., the Campanile papers, cited supra. In addition, IL-12 and IFN-γ are pro-inflammatory cytokines thought to have a pathogenetic role in both septic shock and endotoxemia. See D'Andrea, et al, J. Exp. Med. 178:1041 (1993). Murphy, et al, J. Exp. Med. 180:223 (1994); Kubin, et al, J. Exp. Med. 180:211 (1994). In view of the results secured in examples 1 & 2, studies were undertaken to measure serum levels of TNF-α, IL-12 p40, and IFN-γ, in subject animals challenged with P. aeruginosa in the manner described supra, or lipopolysaccharide antigen (“LPS” hereafter), that were also treated with IL-9.
(§2) In these experiments, mice were injected, intraperitoneally, with 850 μg of LPS, which had been determined previously to constitute an LD90. All animals received doses of IL-9 as described supra, 24 and 1 hour prior to challenge. Sera were analyzed 2, 4, 6, 8, and 24 hours following challenge, using either a standard bioassay for TNF-α (cytotoxicity to TNF-α sensitive WEH1 164 cells), or via an immunossay (IL-12p40 and IFN-γ).

[3] = system: IL-10; test: serum IL-10 by ELISA after LPS challenge; assay type: in vivo; settings: LPS challenged mice; IL-9 24 and 1 hour prior to challenge
Experimental: (§3) In view of the observations of Giampetri, et al, supra, serum levels of the anti-inflammatory cytokines IL-4 and IL- 10 were measured in the sera of mice that had been challenged, either with the whole bacteria or with LPS, as described supra, and had received IL-9 24 and 1 hour prior to challenge, as described supra. Levels were measured via ELISAs, 2, 4, 6, 8, and 24 hours after challenge.

[4] = system: IL-4; test: serum IL-4 by ELISA after challenge; assay type: in vivo, mice; settings: IL-9 24 and 1 hour prior to challenge with bacteria or LPS; 2-24 hours after challenge
Experimental: as §3

[5] = system: P. aeruginosa (serotype 10); test: live sepsis model, survival after lethal P. aeruginosa challenge; assay type: in vivo, mice
Experimental: This model was used in these experiments. To elaborate, hybrid mice (BALB/c Cr×DBA/2Cr) F1 (CD2 F1) of both sexes, ranging in age from 2-4 months were used. Mice were injected, intravenously, with 10^10 cells of P. aeruginosa (serotype 10), as described by, e.g., Campanile, et al, Cell. Immunol. 128:250 (1990); Campanile, et al, Cell. Immunol. 147:341 (1993); Campanile, et al, Eur. J. Pharmacol. 307:191 (1996). The microorganism was cultured in tryptic soy broth using standard conditions, and incubated at 37° C. for 18-24 hours under constant aeration. After the overnight culturing, the microorganisms were centrifuged, forming a soft pellet which was then resuspended in phosphate buffered saline. The dose of microorganisms referred to supra was then administered. This inoculum size is known to be lethal in more than 90% of test animal populations.
The interleukins and PBS were all administered intraperitoneally. Pentoxifylline was also administered intraperitoneally.
The experiments described supra were repeated, using a variety of doses, and both prophylactic and post-challenge administration.
To test this, mice received pentoxifylline at a dose of 30 mg/kg of body weight 1 hour before challenge with bacteria. The animals received a dose of murine IL-9 (4 μg) three hours post infection.

[6] = LPS challenge (LD90), survival; assay type: in vivo, mice; settings: 850 μg LPS i.p.; IL-9 24 and 1 hour prior to challenge
Experimental: as §2

[7] = system: TNF-α, IL-12 p40, and IFN-γ; test: serum levels of TNF-α, IL-12 p40 and IFN-γ after challenge (bioassay / immunoassay); assay type: in vivo, mice; settings: IL-9 24 and 1 hour prior to challenge (P. aeruginosa or LPS); 2, 4 and 6 hours after challenge
Excerpt: as §1, §2

[8] = system: IL-10; test: serum IL-10 by ELISA after P. aeruginosa challenge; assay type: in vivo, mice; settings: 2 hours following Pseudomonas infection; IL-9 24 and 1 hour prior to challenge
Experimental: as §3

[9] = system: IL-10; test: PCR of IL-10 transcripts in spleen cells of challenged mice; assay type: in vivo; settings: after infection, animals which had received IL-9; control mice hardly detectable
Experimental: The experiments described herein report analyses of expression of IL-10. Specifically, total RNA was isolated from spleen cells of challenged mice at different points in time (0.5, 1, 2, 4, and 8 hours). Isolation was carried out in accordance with Campanile, et al, Eur. J. Pharmacol. 307:191 (1996), and Houssiau, et al, J. Immunol. 154:2624 (1995), incorporated by reference. These references also describe the PCR protocols used for amplifying transcripts of β-actin (control), and IL-10. Commercially available primers were used to amplify β actin, and the 5′ and 3′ primers for IL-10 were, respectively: […]
The amplification product for β actin should be 540 base pairs in length, and that of IL-10, 256 base pairs. Products were analyzed via 1.5% agarose gel electrophoresis, and visualized by ethidium bromide staining.

[10] = system: TNF-α; test: serum TNF-α bioassay (cytotoxicity to WEH1 164 cells) after LPS challenge; assay type: in vivo, mice; settings: LPS challenged animals (850 μg i.p.); IL-9 24 and 1 hour prior to challenge
Excerpt: as §1, §2

Question: With `CC(=O)CCCCn1c(=O)c2c(ncn2C)n(C)c1=O` [Pentoxifylline, reference compound] as the molecule, how does the “protection in experimental sepsis” value ([1]; phosphodiesterase inhibitor, literature statement) read?
Answer: confers protection

B1: IL-4: IL-4 (3 μg/mouse), together with 30 μg of anti-IL-4 monoclonal antibodies; composition improving bioavailability of IL-4 (protein, UniProt P07750 21-140, looked up)
Interleukin-4: HIHGCDKNHLREIIGILNEVTGEGTPCTEMDVPNVLTATKNTTESELVCRASKVLRIFYLKHGKTPCLKKNSSVLMELQRLFRAFRCLDSSISCTMNESKSTSLKDFLESLKSIMQMDYS
modifications: complexed with anti-IL-4 antibody
Question: Which “protection against fatal sepsis” value ([1]; IL-4 3 μg/mouse together with 30 μg anti-IL-4 monoclonal antibodies, i.p., before P. aeruginosa challenge) does the source give for B1 here?
Answer: 100%

B2: IL-9: recombinant murine IL-9 produced in a baculovirus model in accordance with Druez, et al (protein, UniProt P15247 19-144, looked up)
Interleukin-9: QRCSTTWGIRDTNYLIENLKDDPPSKCSCSGNVTSCLCLSVPTDDCTTPCYREGLLQLTNATQKSRLLPVFHRVKRIVEVLKNITCPSFSCEKPCNQTMAGNTLSFLKSLLGTFQKTEMQRQKSRP
Question: Which “drop in TNF-α levels” value [2] does the source give for B2 here?
Answer: 10 fold

Question: What about the “increase of IL-10 levels (serum)” value [3] of the same molecule?
Answer: The same effect, albeit a lesser one

Question: What about the “effect on IL-4 production (serum level)” value [4] of the same molecule?
Answer: did not appear to have any effect

Question: And the survival rate ([5]; IL-9 i.p. prior to P. aeruginosa challenge, pooled independent experiments)?
Answer: about 80%

Question: What about the cure rate ([5]; single 4 μg dose 24 hours before bacterial challenge, no second dose) of the same molecule?
Answer: 50%

Question: And the “benefit (survival)” value ([5]; single treatment of 4 μg near the time of infection, and as much as 3 hours post challenge)?
Answer: marginal benefit

Question: What about the “outcome (survival) of LPS challenged mice” value [6] of the same molecule?
Answer: death in the majority of the animals tested

Question: What about the “expression of the cytokines (TNF-α, IL-12 p40, IFN-γ) in serum” value [7] of the same molecule?
Answer: drastic reduction in all three cytokines

Question: And the “increase of IL-10 levels (serum)” value [8]?
Answer: striking

Question: And the “IL-10 specific transcripts in spleen” value [9]?
Answer: extensive expression

Question: What about the “drop in TNF-α levels” value [10] of the same molecule?
Answer: better than a twofold drop
